Assay results from publication PMC7939443.

Tests used:
[1] = molecular target: human poly(C)-binding protein 2 (PCBP2), full length, wild type (human) (UniProt Q15366); experiment: SAXS
[2] = molecular target: human poly(C)-binding protein 2 (PCBP2), full length, wild type (human) (UniProt Q15366); experiment: AUC
[3] = molecular target: T1, nsp1β WT;PCBP2 WT (PRRSV isolate SD01-08 (Betaarterivirus …, UniProt Q04561;Q15366 181-385;1-365, |)); experiment: EMSA; large molar excess of both proteins; conditions: protein: recombinant;recombinant; tags: GST tag removed with HRV 3C protease;N-terminal polyHis; copies: 1;1; single strand
[4] = molecular target: T2, PCBP2 WT (Homo sapiens, UniProt Q15366 1-365); experiment: EMSA; no appreciable binding at 28-fold molar excess; conditions: protein: recombinant; tags: N-terminal polyHis; single strand
[5] = molecular target: T1, nsp1β WT;PCBP2 WT; experiment: EMSA; conditions: protein: recombinant;recombinant; tags: GST tag removed with HRV 3C protease;N-terminal polyHis; copies: 1;1; single strand
[6] = molecular target: T1, nsp1β WT;PCBP2 WT; experiment: EMSA; supershift relative to PCBP2 alone; complex also purified by SEC; conditions: protein: recombinant;recombinant; tags: GST tag removed with HRV 3C protease;N-terminal polyHis; copies: 1;1; single strand
[7] = molecular target: T3, nsp1β WT (PRRSV isolate SD01-08 (Betaarterivirus …, UniProt Q04561 181-385)); experiment: EMSA; up to 20-fold molar excess; conditions: protein: recombinant; tags: GST tag removed with HRV 3C protease; single strand
T3 sequence: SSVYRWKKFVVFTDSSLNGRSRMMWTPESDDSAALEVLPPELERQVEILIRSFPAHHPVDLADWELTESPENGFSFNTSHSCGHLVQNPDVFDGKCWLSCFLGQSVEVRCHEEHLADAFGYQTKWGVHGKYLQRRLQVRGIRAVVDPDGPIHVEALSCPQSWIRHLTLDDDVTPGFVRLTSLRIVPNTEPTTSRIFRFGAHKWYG

[8] = molecular target: T2, PCBP2 WT; experiment: EMSA; seen from 8-fold, strong at 20-fold molar excess; conditions: protein: recombinant; tags: N-terminal polyHis; single strand

T1 sequence (Q15366 whole entry, one chain of several): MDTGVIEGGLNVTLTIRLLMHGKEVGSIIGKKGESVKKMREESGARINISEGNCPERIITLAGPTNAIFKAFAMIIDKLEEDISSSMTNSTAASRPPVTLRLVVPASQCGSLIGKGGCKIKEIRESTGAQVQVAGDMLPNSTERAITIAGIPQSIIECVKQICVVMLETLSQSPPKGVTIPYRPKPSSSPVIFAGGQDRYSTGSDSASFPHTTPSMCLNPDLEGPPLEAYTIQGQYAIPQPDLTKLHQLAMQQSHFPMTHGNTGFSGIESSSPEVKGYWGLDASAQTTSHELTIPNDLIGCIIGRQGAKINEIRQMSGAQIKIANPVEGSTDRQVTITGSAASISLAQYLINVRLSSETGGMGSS
T2 sequence (Q15366 whole entry): as the sequence (Q15366 whole entry, one chain of several) above
human poly(C)-binding protein 2 (PCBP2), full length, wild type (human), sequence (Q15366 whole entry): as the sequence (Q15366 whole entry, one chain of several) above
PRRSV nonstructural protein 1β (nsp1β), isolate SD01-08, wild type (natural protein), sequence (A0MD28 181-385 limits assumed): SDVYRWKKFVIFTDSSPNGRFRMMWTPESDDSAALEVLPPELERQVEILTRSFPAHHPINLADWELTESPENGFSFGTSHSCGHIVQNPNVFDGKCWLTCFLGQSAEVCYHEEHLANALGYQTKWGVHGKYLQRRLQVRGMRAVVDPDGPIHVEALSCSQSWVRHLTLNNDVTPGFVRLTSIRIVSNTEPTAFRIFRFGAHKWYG

In the case of “PRRSV nonstructural protein 1β (nsp1β), isolate SD01-08, wild type (natural protein)”, the stoichiometry N [1] is reported as 1 and the stoichiometry N [2] is reported as 1.

GGGTTTTTGAAGTTTACTGAAATATGGCAGCTTT (ssDNA) [34-nt CC2 ssDNA]: no binding [3].

GGGUUUUUGAAGUUUACUCCCAUCUCCCAGCUUU (ssRNA) [34-nt PRRSV ssRNA]: no binding [4]; binds [5].

GGGTTTTTGAAGTTTACTCCCATCTCCCAGCTTT (ssDNA) [34-nt PRRSV ssDNA]: binds [6]; no binding [7]; binds [8].
